According to patent publication US20040234623A1:

Target: rabbit anti-human IDO polyclonal antibody (raised against the KLH-conjugated peptide of SEQ ID NO: 1, affinity purified)
Assay: flow cytometry of IFNgamma-activated monocyte-derived macrophages; antibody pre-adsorbed with immunizing peptide (competition against cellular IDO)

LIESGQLRERVEKLNMLC [immunizing peptide … (SEQ ID NO: 1), based on human IDO]
percent reduction of flow cytometry signal: > 95%
